# In the supplement of paper PMC12636428:
# Tested on: Saccharomyces cerevisiae
# Experiment: transcriptional activation domain activity (GFP:mCherry ratio, weighted mean of sorted bins, harmonized to initial dataset scale) (arbitrary fluorescence ratio units); higher = stronger transcriptional activation
# Conditions: beta-estradiol 1 µM; induction time 4 h
# Outline: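 Each value is an activation activity: the read-weighted mean of bin median fluorescence, averaged across barcodes, then mapped linearly to the initial dataset scale. The tiles, fused to an estradiol-inducible synthetic transcription factor, sat at the yeast URA3 locus in GFP-reporter diploids. Cells spent 4 hours at 30 °C in SC with 1 uM beta-estradiol before sorting into 8 GFP:mCherry bins, and tiles below 50 reads were removed.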
row,Sequence,transcriptional activation domain activity
1,ERPREKKEHSRRHRDDEEKGRRRRHRSRSRSRDRRERRRERSRSRERRRGGDE,13000
2,MRVGVGGLLWLLCGSPFFFLHFISFVFLFFWSLLFFLFCRALHTPFSSYYNYH,72000
3,GKKGSSGAKKGGKKGSSTGAKEEVAKKPSIEKSGEKKSEGGEKKENDEKKNDK,37900
4,MGGGGGACSCSIAYIHGFLSSLFFLLFATTFFHYSFCLLLLWMLIFFWLFAFV,< 6570
5,YLIGFIGFVMSLQKQYLKSQFGLFCWVHMSLLVIVVSSHFIINNIFEGLIWFW,79300
6,KRKDAAKKKSEREWKDRVKGVEKAGRDRQKRREENIRKRKEEKGRGKGKKGKG,6830
7,WLSHSQKKHCELCKTPFRFTKLYAPNMPKALPTHIFLSHMAKYILRNLLVWLR,61200
8,EIAVEEPAQPMDVDGAVEAETDATTSKQDKKDKKKKKKASKESKVEAEPEAAA,48700
9,ISLLTLSFFYCFLGVFLPGFSLSLLPFPLFCFFLAFFLPCFSLSLLPFYPFFF,56500
10,GESKEERRSKKDKKRKREAEGVPAEEEASEVQDKKKKKSKNASAMEVDSATPT,30900
11,RIILINPLICGATLMLVFAAIGGGWRNVAIEIFVDHGYIRLLFILCTIPQIWL,56800
12,SSEGGEENKAEEAELEKADKPKEETTEEKKSEEEKPEEKKPEEKKPEETKAEN,18500
13,GLRLIYVVNHGAWGKGPPLATIWVYVIVQLNLLPAVLSLVVIAGFVQYLNLKI,77200
14,AAKALCKLQEAILKTYGMPGLLCMLRGISFHIYAVLTCTMLHLVAITCPDPDI,32900
15,MNDKVVSCETRRRRKAREGREKRGKGEERGEKREGRRERGEREREKRKERGRE,25300
16,MYHPPWVLVGKCGSKEVRDELARHQLIACSRDLSVHVLKVDLLRKSWLLGHWR,58900
17,IMLVLNWLAVHGLFLVKKKSEKSVYHALHKMPTPPFSDSLRQQCRDRLLACLA,36700
18,LSELSSALDPTQAQYAYARIEYANDTESKRVKFILVIWIGEGTKVMRKARVSI,37600
19,MSLYICNLVFSFFFFLFSFFLFLTLIFSSTRADCLWLLQERWYFVLLWNTLPF,45800
20,IYESALQTEHHKQGIGRSIAEAVKNRELSGFDQFQQIISFCLCVLKQLYRRFT,37600
21,VRRVLLMVPDWFIIFGYRWYRALGLLKTVCPWWTSIINSSSVFYSMLWVDPSV,90900

row,Sequence,transcriptional activation domain activity
1,KILNCLSIRLYLCRKGFGSLPNEQLALFNFNARECLRALGVTLFKPRLYRLCY,80900
2,GEEDAEEEAKPKKGGKRKAEPVKEEDDEPEEAPAKPKRGRKSAKEQVKEEIKE,42700
3,AAPAAPADDGFQSVPGRNRGQREGGGNYRSRGGYRGEGRGRGGYRGEGRGRGR,37000
4,RHICLILINIAVGLRFIFYAIDPYCIYNIFNPILNRLLFVTFYWIALLAYVLM,48100
5,EYDEDAARRIAERVHARAIGLTCGAAPPQVGGRSCASAVWSPIRVAVSTVCIQ,44700
6,RDDDAEEDKEEVPKKKNRKGQEVGGEAGKRVEEEEEEEAPKRKKKKAKAAAAD,13400
7,GDESRIDTKFFFGCVGLSNVVFIWPVLVLFHYLGIERFGLPPSSRIWWLLLLN,50100
8,IGTSSTGDLECCLFTLLLFSWFWGLQTFLSICYYYGSFVSQAFFFFFHFFFFW,53800
9,ALAVMFAEAVALSWWVSALKGQTLECLHFQWEVGQSVLKILLKRRFWGWVCVA,46700
10,MTGTTLLPPPFISNDVTNSADSTNIKPSPSSSVDNLNDYLTDINSLAWGVNSL,67600
11,SPTSAFGTASAPAATSAFGAPATGAAGGGGGGFSAFAGKPAAFGGAAPAPAPA,46100
12,VSFDFPRSPYPNGSFESFLRDIFARCNLLEVLVFRTKVKSLRGWLKHYTYFAD,75400
13,MSDLPLFFYFYFITVCITSWRFTCILAPGLFFSFYFFLCFFCLFSLLSLHDLM,20700
14,MNAQQLSGTRHKKEIKRRTKTGCLTCRKRRIKCDEGHPTCRNCQKSKRECLGY,38600
15,ISLCLLHCVIMVFGLGLQLLVPSIYTRIEHVSYESTWNFAYYCAGWFMLKVCI,38100
16,MPVLPYFFAKFIIDIPRIVIGGSMFSLALVVFFPYQQPFVRMYGMVIILYFYS,51200
17,KREQREKEKEAEREREREKAARAARRESRREERTRREDEKERGARHEERTSRY,28000
18,VYLCNVNLSIFKSVLSWVGVCTALYGCITIMPIFRHDSPYHTPLSFLAWHIVI,63600
19,RQRKDNHKEVERRRRGNINEGINELGRIVPNGSGEKAKGAILSRAVQYIHHLK,13600
20,GDKNKRKRGDSAASEAQAGQQEAAKEVQQKKKRVRSKGKAAAPPVAQASAGAS,45300
21,LCMELVLHYIYVVAISNSSPDWSAYTPFQLSMLGYFNLHHIWLKLLIPWRFFR,63800

row,Sequence,transcriptional activation domain activity
1,KCLRLAIHIPLYPLFRTALVLRVQPSNAPLIRSVKDFLIYYLHDLQRFFILSP,70000
2,FLKIYLLNPLHMTRFTDLLHQGFILNRVFQPYESHLQYLLQWMCDYNLYGCAY,39200
3,MCILSLFTAWAGLTLFTCIFSFFLLCIVNALLGQNGVGGLLTARRFNTILRVC,54400
4,QREARKEHIKSLVAPGLPFLSIDTYKDLNDKWVLKGVFRGLLVLRGLAHHLRT,63100
5,KRKDGNGGAGREMKRGERDASPAKGKGASAARGRGGRGRGGRRGGSRGGKKRG,32600
6,VGTVMFGLACASSTQVLLSLIGGWNVGFFISLLAVTIFAVLTKIIPWVWYIYS,58300
7,SLGMGLDYWARLSGLYLQKLGWGYRVWCFSFWMGLSLGFLLLFSSLGAYILFL,55400
8,MPVGIVLQLIAAVQYHLYTAMLFTWTDYKTIFFPYLLKCCLWVWVHQLLCNVS,56900
9,KGAKDEKKEDAKGGEEGKDATKQREKEESKGGKLESTPSKEFSDGKEQQEKKG,40400
10,SKRAQDPLRIWDAMIDVHVHLPAGAQKKDGPSAGVAMVIVCAIVSLLTGKCVP,46600
11,VSYVSYVLLFIPFFMLRVFYLSIVTFFLCHIWLHRFGFLVWLWILWCTWGWCN,54800
12,NNSINATPIVDNSSGSQLPNGFDRGQANNTPFPGYFGGLDLFDYDFLFGNDFA,133000
13,SFALCNRIVVGCAILRTGKILKSWHVARVSHFSTFVFNGVIHGSIPNMILTRK,55100
14,MGCFFCYCSIVLFRSSLYIISFFLLFFFLCFLFFYHIWVGVLFPSIFPLFYIR,65400
15,YKTTMARLIYLMDDKFKLFDHLRALKKYLLLGQGDFIALLMESLASNLDRPAN,55100
16,LLLRGSTFSFLLSSFLHFFIALVNCMLYTPPKFFKNPFCMFILFYLSYLLWGT,66000
17,FSSINANPFDLDEQLAIELSAFADDSFIFPDEDKPSNNNNNSNNGNDDHSNHD,80300
18,MVPPRRESAATGASQRAAIACQSCRLRKVKCDAESAASDQGCTPCRRARQECV,26600
19,MFLLAFCIQAEYQLKLLYMFFYFFCSYVSSLIVFVSYFGVLVVLAGLNCFFTY,50300
20,EEEEPSDEGEGEELDENGDVVMADVSQKSTKSKKEEPAQRYIGSVEVLSKLNL,< 6570
21,VASVLVFICHYTECNWGDLTHFYGVNKEHPGSFIQMPYIRLIYSGRPMVHIFF,29900

row,Sequence,transcriptional activation domain activity
1,LIGMDQDVLGRWSQVIGEKGEGSLFSLALGPHQSNWLVLIRQACLLLLRSVAA,51200
2,SDAAVELCVAAAPRNGESNKAVVQVLSHVSTHHLHLESLLTCLSQALKIPKMD,42000
3,LLVLLVFVADTLHMMGTTQFYWSMLVLCRRSDAAMCEAGLSWGSSISFPMNYV,42600
4,ELSHPSALFCYILFRLFPIFMYLFGHLVLMLVTQESWFILYFIVLILLVAADF,60500
5,VQRLHALEKHEYDVCTNLEACLRFGLWAQRGVLSLWHLDLLNGTWMTCLSGVK,39600
6,MLTIYFPLLLFLCFHFFNRVKVWWVWVWGRVKLGWVYWFLYLCIWKGGWIRNR,48300
7,NGHGTHCSGTVAGKKYGVAKKANIKAVKVLRSNGSGTMSDVVKGVEFAAEQHS,15600
8,LLLPLLLPVLHIFPFLIDFLLPVLDLLLALLVLLPALLDLLLVLLVLLPPLLP,56100
9,ELLSVLIPPSPAETRGPTTLSTSPSFNEHGVVAEASFLSSILELGIKHPKSNN,27900
10,WRHLFLGQLPLLMSEPFTNSTPIIDPLLNNDFELIDFEVNLMKYLQSKDQQLS,117000
11,EDEAPEPEAEEKKPSAKGRRASKVKQENDEEPEPEPVKQVAKAKRGSKKAVKE,40200
12,MAGAVPVLMLILLQLSHLCTAFKFYSESGFALVRKILLTALPTFEPHHYQMDG,64300
13,LYFLLLLSPLCIGLVSVLCCHIGFIFLFLFFLLQSYQVSYLLLFMYIRFFLCM,42300
14,QENAQTEKEERDEKERAREKGNEKEKGNESEKGDEKKKGNEKKKGTERGKGKG,28100
15,MSLPGGFIFCCLFIFIFFAPFYSTFLRFFFPSCFYLFFYICCSFFFFFFFFPP,38900
16,MSTWLLRVFFSTCLYIIIWFFFHSFPFLSFFLPCLCCMFFFLACCLVSLSRVL,35200
17,KRGRPAKKAQEEVEVEEAAPAKRGRKAVAKEEPAKKETKAKPTTKSRGTKRAA,38600
18,YALEWNGLVVRSFAYHTVFGIAKVGFFLYHFLFSSFVFSLLLSLVIFFFFFFF,32600
19,VNYHLAMRYFMRYLFTQDLLPLLLAAKEQCQQAHVMCVQGAGFGLRIRTDDIG,45000
20,DIPGLAPTYLDNQAFLMADTVDIPGDYNLFFDNFDISNFFLPATVYDSELPVS,137000
